Measurements from paper PMC8497999 (iScience, 2021).
Where two headings read alike, the source gives them in different places.

How the values were obtained:
Assay in all cases: SEC
[1] = target: T1, ACAD9 (non-tagged wild type) (human, UniProt Q9H845 38-621)
T1 sequence: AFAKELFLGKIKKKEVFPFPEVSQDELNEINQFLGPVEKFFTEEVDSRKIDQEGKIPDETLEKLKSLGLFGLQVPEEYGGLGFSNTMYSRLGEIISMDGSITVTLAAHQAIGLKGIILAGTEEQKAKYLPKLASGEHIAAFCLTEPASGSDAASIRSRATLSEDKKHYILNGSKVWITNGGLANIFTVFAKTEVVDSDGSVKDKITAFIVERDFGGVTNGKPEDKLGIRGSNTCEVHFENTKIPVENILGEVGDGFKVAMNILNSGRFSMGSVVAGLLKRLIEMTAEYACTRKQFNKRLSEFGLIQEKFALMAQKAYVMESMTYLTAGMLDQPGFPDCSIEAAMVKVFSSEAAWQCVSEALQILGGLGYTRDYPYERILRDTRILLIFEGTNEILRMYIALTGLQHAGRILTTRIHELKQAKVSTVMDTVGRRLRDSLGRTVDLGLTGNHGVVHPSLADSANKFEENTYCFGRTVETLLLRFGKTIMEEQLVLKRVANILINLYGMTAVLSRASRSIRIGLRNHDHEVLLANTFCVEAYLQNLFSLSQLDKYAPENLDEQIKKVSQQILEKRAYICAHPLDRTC

[2] = target: T2, ACAD9-His6 R518H (human, UniProt Q9H845 38-621, R518H)
T2 sequence: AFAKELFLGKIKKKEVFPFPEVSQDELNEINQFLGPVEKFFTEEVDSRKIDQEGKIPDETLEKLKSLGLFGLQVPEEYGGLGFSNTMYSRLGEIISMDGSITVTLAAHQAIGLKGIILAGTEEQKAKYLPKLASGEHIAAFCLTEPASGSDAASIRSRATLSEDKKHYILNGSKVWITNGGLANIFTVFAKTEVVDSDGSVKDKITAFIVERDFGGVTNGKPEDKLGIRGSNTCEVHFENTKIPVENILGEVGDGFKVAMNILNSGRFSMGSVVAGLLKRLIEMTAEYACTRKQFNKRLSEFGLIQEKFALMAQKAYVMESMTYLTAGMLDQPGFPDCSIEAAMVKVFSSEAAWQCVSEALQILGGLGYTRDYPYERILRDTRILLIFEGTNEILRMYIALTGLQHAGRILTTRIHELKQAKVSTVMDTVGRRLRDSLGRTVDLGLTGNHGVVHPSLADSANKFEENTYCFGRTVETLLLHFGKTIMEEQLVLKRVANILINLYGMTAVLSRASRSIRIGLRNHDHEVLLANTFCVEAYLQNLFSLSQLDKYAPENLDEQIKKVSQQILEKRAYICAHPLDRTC

[3] = target: T1, ACAD9 (non-tagged wild type); remark: listed apart in the source

B1: His6-ECSIT (mature human mitochondrial ECSIT with N-terminal His tag) (natural protein)
chain: SSEQSLVPSPPEPRQRPTKALVPFEDLFGQAPGGERDKASFLQTVQKFAEHSVRKRGHIDFIYLALRKMREYGVERDLAVYNQLLNIFPKEVFRPRNIIQRIFVHYPRQQECGIAVLEQMENHGVMPNKETEFLLIQIFGRKSYPMLKLVRLKLWFPRFMNVNPFPVPRDLPQDPVELAMFGLRHMEPDLSARVTIYQVPLPKDSTGAADPPQPHIVGIQSPDQQAALARHNPARPVFVEGPFSLWLRNKCVYYHILRADLLPPEEREVEETPEEWNLYYPMQLDLEYVRSGWDNYEFDINEVEEGPVFAMCMAGAHDQATMAKWIQGLQETNPTLAQIPVVFRLAGSTRELQTSSAGLEEPPLPEDHQEEDDNLQRQQQGQS
stoichiometry N [1]: 1 monomer:monomer
binding result [2]: binds
stoichiometry N [3]: 1 ECSIT monomer per ACAD9 monomer (2:2)
